Results from US20080113421A1, “Stabilizing proteins against denaturation and inactivation by charged detergents using chemical modifications, including modifications that increase net charge” (President and Fellows of Harvard College, priority 2006, published 2008).

Experiments:
Assay type in all cases: physicochemical
[1] = Unfolding (denaturation) of protein in SDS in Tris-Gly buffer, monitored by DNSA fluorescence
Method: Monitoring unfolding of BCA and BCA-Ac18 was performed as follows. The proteins (200 nM) were incubated in different concentrations of SDS in Tris-Gly buffer. A 100 microliter aliquot of protein-SDS solution was mixed with 100 microliters of DNSA solution (30 micromolar) with the same concentration of SDS, and measured the intensity of fluorescence (Perkin-Elmer LS50B spectrometer, λex=280 nm, λem=460 nm) as a function of time. The denaturation of BCA was continuously monitored in concentrations of SDS above 4 mM. The rate constants were determined for denaturation by fitting the intensity vs. time data to FU=FUmaxe^−kt+FUmin. Unfolding experiments at 37° C. were performed similarly, with samples stored in a dry bath incubator (Fisher Scientific).
The kinetics of unfolding were determined as follows. The rates of denaturation of BCA and BCA-Ac18 were measured by incubating the protein (200 nM) in solutions of different concentrations of SDS. Immediately prior to the measurement, an aliquot of solution containing protein and SDS was mixed with a solution containing DNSA and the same concentration of SDS; this protocol minimized the possibility that DNSA might stabilize the native conformation of the protein, and influence the rate of its denaturation. When BCA was denatured in concentrations of SDS of 4 mM and higher, DNSA was added to the original, denaturing solution because the rate of denaturation was too fast to follow with manual mixing of aliquots of protein and DNSA. It was observed that DNSA, when present with the protein in the denaturing solution, reduced the rates of denaturation by factors of about 2-10.
FIG. 1 plots the fluorescence of DNSA, normalized to the signal at t=0, as a function of time of incubation of samples of BCA and BCA-Ac18 in various concentrations of SDS. The decrease in the intensity of fluorescence of DNSA, and thus in the amount of folded protein, followed first-order kinetics. Denaturation of proteins with surfactants probably proceeds through intermediates, but when using a marker that is specific to the folded active site of carbonic anhydrase, transitions beyond the initial unfolding of the three-dimensional structure of the protein were not detected.
The tables list the half-lives (t1/2) for denaturation of BCA and BCA-Ac18 at several concentrations of SDS. The denaturation of BCA at 4 mM occurred very rapidly, and data are not shown to avoid overlap with data at 3.5 mM. The error bars represent the difference between the average and the largest and smallest values measured from at least three replicate measurements.

[2] = Refolding of SDS-denatured protein by dilution or removal of SDS, monitored by DNSA fluorescence
Method: Monitoring refolding of BCA and BCA-Ac18 was performed as follows. The proteins (10 micomolar) were denatured in 10 mM SDS for 24 h. […] Refolding was initiated by dilution of an aliquot of the denatured sample to a final concentration of protein of 200 nM, with varying concentrations of SDS in the buffer. Immediately prior to the measurement, an aliquot of renaturing protein was mixed with an equal aliquot of DNSA. The rate constants for renaturation were determined by fitting the data to FU=FUmax(1-e^−kt)+FUmin. The refolding experiments at 37° C. were performed similarly.
The kinetics of refolding were determined as follows. The rates of refolding of BCA and BCA-Ac18 from the fully denatured states (in 10 mM SDS) were measured by dilution of the solutions into buffers containing concentrations of SDS from 0.1 to 2 mM, using the fluorescence of DNSA as a marker for the appearance of the folded state. […] As in denaturation studies, an aliquot of solution of the protein and SDS was mixed with an equal aliquot of solution of DNSA with the same amount of SDS immediately prior to the measurement to eliminate the possibility of DNSA influencing refolding kinetics. The buffer also contained 100 micromolar ZnSO4 to ensure that the folded protein could incorporate a Zn(II) cofactor.
The raw data emphasize the decrease in the yield of folded protein with increasing concentration of SDS. […] The half-lives (t1/2) for renaturation were determined, where possible, by fitting the data to FU=FUmax(1-exp(−t/t1/2))+FUmin; the fits are shown (solid lines). The tables provide data for refolding in 0.1 and 0.4 mM SDS as well as for concentrations on the graphs for comparison. […] The error bars represent the difference between the average and the largest and smallest values measured from at least three replicate measurements.

[3] = Refolding after 1 week incubation at intermediate SDS concentrations (aggregation test)
Method: Aggregation was tested by renaturing the proteins from a denatured state at 10 mM SDS to 0.1 mM SDS, but through an incubation step at intermediate concentrations of SDS, instead of renaturing by rapid dilution from 10 mM SDS to 0.1 mM SDS directly (i.e., 10 mM SDS→2.5 mM SDS→0.1 mM SDS instead of 10 mM SDS→0.1 mM SDS). For incubation, concentrations of SDS were chosen in which aggregation was believed to occur on a similar or shorter time scale as refolding. The protein-SDS complex was diluted from 10 mM SDS to 2.5-0.7 mM SDS, the proteins were incubated for 1 week at those concentrations, and the samples further diluted to 0.1 mM SDS to initiate fast refolding.
The fluorescence signal from DNSA was normalized to that of refolded protein by rapid dilution from 10 to 0.1 mM SDS.

[4] = Net charge of protein (capillary electrophoresis, charge ladder)
Method: BCA-Ac18 was synthesized by reacting the lysine residues of BCA with acetic anhydride in 100 mM HEPES buffer, pH 8.2. The N-terminus of BCA was acetylated posttranslationally. The final product contained ˜90% of BCA-Ac18 and 10% of BCA-Ac17, as determined by peak areas in an electropherogram from separation by capillary electrophoresis. The net charge of BCA in Tris-Gly buffer was about −3, and the net charge of BCA-Ac18 was about −19. It is believed that the difference in charge between BCA and BCA-Ac18 was less than 18 full units of charge due to charge regulation-adjustment of protonation states of other ionizable groups on the protein to counteract the increasing electrostatic potential on its surface.
For any charge ladder of BCA, as the number of modifications (n) increases, the total charge on the protein becomes more negative, and the surface of the protein becomes more hydrophobic due to conversion of NH3^+ groups to NHCOR groups. Native BCA has a charge of ˜−2.9 at pH 8. The charge on the early rungs of the ladder increased linearly with the number of acylations; each rung adds an additional charge of ˜−0.9. Therefore, for example, BCA-Ac8 has a charge of ˜−10. The later rungs of the ladder may differ by <0.9 units of charge. Using the Linderstrom-Lang model of cooperativity in proton binding, the charge on BCA-Ac18 was calculated to be −19. The mobility of a given rung of BCA-Acn may have nearly the same mobility as the corresponding rung of BCA-Hexn. Thus, the charges of the BCA-Hexn may be indistinguishable from those of BCA-Acn for a given rung number. (Small deviations in mobility between later rungs of the two ladders may be due either to a change in charge or a change in drag between the two ladders. It can be assumed that any differences in the mobilities are due to additional drag from the hexanoyl groups relative to the acetyl groups.

[5] = Denaturation of BCA charge ladders in 3 mM SDS (dialysis cassette) followed by capillary electrophoresis, with transition-state model fit; settings: for b coefficient of fit ΔG‡=a+bn+cn^2: 3 mM SDS; for Chydro (hydrophobic contribution to ΔΔG‡): per acylation
Method: Denaturation experiments were performed as follows. A charge ladder of BCA (BCA-Acn or BCA-Hexn, 1 mL of 100 micromolar total protein in Tris-Gly buffer) was placed in a dialysis cassette (MW cutoff of 10 kDa). The dialysis cassette was placed in a 1 L bath of 3 mM SDS in Tris-Gly buffer at room temperature. The buffer was changed every 24 h. At regular intervals of time (approximately every half-hour), 100 microliters of the protein solution was removed from the dialysis cassette; ˜7 microliters of that aliquot was diluted 10-fold and the absorbance of the diluted sample at 280 nm (ε280,BcA=57,000 M^−1 cm^−1, the absorption cross section can be assumed to be is unchanged by acylation) was measured to determine the total protein concentration. The aliquot was diluted because the absorbance of the 100 micromolar solution was too high to be read accurately by the ultraviolet spectrometer. This diluted aliquot was discarded. The remainder of the solution was then run on CE. The protein solution, except for the portion diluted for ultraviolet measurement, was returned to the dialysis cassette; the aliquot was outside of the dialysis cassette for ˜5 min.
Capillary electrophoresis experiments were carried out in a Beckman (Fullerton, Calif.) PACE-MDQ system, using a capillary of inner diameter of 50 micrometers of total length of 110.2 cm, 100 cm to the detector. Tris-Gly in D2O was used as the running buffer, and the applied voltage was 30 kV. D2O was used in place of H2O for the electrophoresis buffer because the viscosity of D2O is higher than that of H2O and the higher viscosity minimizes diffusion. Samples were injected using pressure (20 psi) for 30 s. Each sample contained 0.65 mM dimethylformamide as an electrically neutral marker for electroosmotic flow.
The CMC of SDS in the Tris-Gly buffer used in this example was 4.3 mM. 3 mM SDS was chosen for these experiments because this concentration of SDS denatured BCA in an interval of time that was convenient for experimental work using CE. In addition, this concentration of SDS was close to the concentration often used in SDS-PAGE (0.1% or 3.5 mM). 1 mL of a solution of ˜100 micromolar of a charge ladder of BCA, dissolved in Tris-Gly buffer, was placed into a dialysis cassette (molecular weight cutoff of 10 kDa) and the cassette placed in 1 L of Tris-Gly buffer containing 3 mM SDS. The bath was kept at room temperature (˜22° C.) for the duration of the experiment.
At regular intervals of time (approximately every half hour), 100-microliter aliquots of the solutions containing the charge ladder of BCA were removed from the cassette in a bath of 3 mM SDS in Tris-Gly buffer, the total protein concentration in the aliquot was measured using absorbance at 280 nm, and a portion (˜10 nL) of the aliquot injected onto the CE. The unused portions of the aliquots were then returned to the cassette.
Residence time in the detection volume was determined as follows. […] If two proteins with the same absorptivity were present in a sample in equal concentrations, the protein of lower velocity would have a larger measured peak area than the protein of higher velocity. To correct for this experimental bias, the area of each peak was multiplied-by the velocity of the protein (Acorr=Ameasured×LD/tD), where LD is the length of the capillary from the end (where injection occurs) to the detector (100 cm in all of these experiments) and tD is the time it takes for the rung to reach the detector.
Initial differences in concentrations of each rung were as follows. The areas of each of the rungs in the charge ladder were not all equal before denaturation. To measure the fraction of each rung that has denatured at each time, the velocity-corrected area of each rung in the sample was divided by the velocity-corrected area of that rung in the charge ladder run in the absence of SDS.
A comparison of the rates of denaturation follows. […]

[6] = Critical micelle concentration by isothermal titration calorimetry; settings: 25 mM Tris-192 mM Gly, pH 8.4 buffer
Method: Critical micelle concentration of SDS in Tris-Gly buffer was determined as follows. The critical micelle concentration (CMC) of SDS in 25 mM Tris-192 mM Gly, pH 8.4 buffer was 4.3 mM, as measured by isothermal titration calorimetry. In this example, the kinetics of denaturation and renaturation of proteins in concentrations of SDS below the CMC were studied. The difference in kinetics of denaturation of the two proteins may also occur in concentrations of SDS above the CMC.

For “BCA-Ac18: charge-modified derivative of BCA having all 18 lysine groups acetylated”, the t1/2 for denaturation ([1]; 4 mM SDS, Tris-Gly buffer) was 30 h, the “difference in denaturation time, BCA-Ac18 vs BCA (factor)” value ([1]; 4 mM and 10 mM SDS) was ~10^4 and the t1/2 for denaturation ([1]; 10 mM SDS, Tris-Gly buffer) was 2.67 h. The “difference in kinetics of denaturation of BCA and BCA-Ac18 (factor)” value ([1]; SDS at and above 2.5 mM) was 10^1-10^4, the “denaturation in low concentrations of SDS” value ([1]; SDS below 2 mM, long (~1 month) periods of time) was “no denaturation was observed” and the “concentration of SDS at which the protein denatures” value ([1]; Tris-Gly buffer, CMC 4.3 mM) was ≥ 2500 µM. The “change in rates of denaturation with SDS, BCA vs peracetylated BCA” value ([1]; change in charge of the protein by a factor of 5) was −3 orders of magnitude, the “difference in activation energy for denaturation, BCA-Ac18 vs BCA” value ([1]; from the factor of about 10^4 in rates) was 5 kcal/mol and the “concentration of SDS at which no refolded protein was observed” value ([2]; dilution from 10 mM SDS) was ≥ 1600 µM. For the same molecule, the “rate of refolding relative to BCA” value ([2]; solutions with the same concentration of SDS) was “faster than refolding of BCA”, the “range of SDS concentrations in which protein neither refolds nor unfolds at an observable rate (window)” value ([2]; time scales of a month) was 1.6 to 2 mM and the “refolding rate (given as time) after denaturation with SDS” value ([2]; upon complete removal of the SDS) was 21 ± 2 min. The “yield of refolded protein after incubation, relative to BCA” value ([3]; 1 week incubation at intermediate SDS, then 0.1 mM SDS) was “higher than the yields of BCA”, the t1/2 for refolding ([3]; denatured in 10 mM SDS, incubated 1 week at intermediate SDS, diluted into 0.1 mM SDS) was 0.292 ± 0.0233 h and the net charge ([4]; Tris-Gly buffer) was “about −19”.
In the case of “BCA-Acn: charge ladder of BCA prepared with acetic anhydride”, the “b coefficient of fit ΔG‡=a+bn+cn^2” value [5] is reported as 0.50±0.01 kcal/mol of protein, the “effects of charge on denaturation with SDS relative to effects of hydrophobicity” value ([5]; model of charge ladder data) is reported as ~5 fold and the “Chydro (hydrophobic contribution to ΔΔG‡)” value [5] is reported as 0.085 kcal/mol.
In the case of “BCA-Ac8: rung of the acetyl charge ladder of BCA with 8 acetylated lysines (regioisomers)”, the “charge of rung from number of acylations” value ([4]; each rung adds ~−0.9) is reported as ~−10.
With `CCCCCCCCCCCCOS(=O)(=O)[O-].[Na+]` [SDS, sodium dodecyl sulfate] the “critical micelle concentration (CMC)” value [6] was 4.3 mM.
For “BCA-Hexn: charge ladder of BCA prepared with hexanoic anhydride”, the “b coefficient of fit ΔG‡=a+bn+cn^2” value [5] was 0.33±0.01 kcal/mol of protein and the “Chydro (hydrophobic contribution to ΔΔG‡)” value [5] was 0.26 kcal/mol.
